Measurements from publication PMC9887734, “Meeting abstracts from the 10th International Conference on cGMP: Generators, Effectors and Therapeutic Implications” (Journal of Translational Medicine, 2023).

Assays:
[1] = molecular target: T1, CNGB3 subunit of the human cone photoreceptor CNG channel (human, UniProt Q9NQW8 1-809); experiment: cryo-EM structure; human cone photoreceptor CNG channel CNGA3/CNGB3 in the apo state; conditions: both partners purified
T1 construct: CNGB3, human cone photoreceptor cyclic nucleotide-gated channel subunit; One copy stands in the CNGA3/CNGB3 channel
T1 sequence (looked up): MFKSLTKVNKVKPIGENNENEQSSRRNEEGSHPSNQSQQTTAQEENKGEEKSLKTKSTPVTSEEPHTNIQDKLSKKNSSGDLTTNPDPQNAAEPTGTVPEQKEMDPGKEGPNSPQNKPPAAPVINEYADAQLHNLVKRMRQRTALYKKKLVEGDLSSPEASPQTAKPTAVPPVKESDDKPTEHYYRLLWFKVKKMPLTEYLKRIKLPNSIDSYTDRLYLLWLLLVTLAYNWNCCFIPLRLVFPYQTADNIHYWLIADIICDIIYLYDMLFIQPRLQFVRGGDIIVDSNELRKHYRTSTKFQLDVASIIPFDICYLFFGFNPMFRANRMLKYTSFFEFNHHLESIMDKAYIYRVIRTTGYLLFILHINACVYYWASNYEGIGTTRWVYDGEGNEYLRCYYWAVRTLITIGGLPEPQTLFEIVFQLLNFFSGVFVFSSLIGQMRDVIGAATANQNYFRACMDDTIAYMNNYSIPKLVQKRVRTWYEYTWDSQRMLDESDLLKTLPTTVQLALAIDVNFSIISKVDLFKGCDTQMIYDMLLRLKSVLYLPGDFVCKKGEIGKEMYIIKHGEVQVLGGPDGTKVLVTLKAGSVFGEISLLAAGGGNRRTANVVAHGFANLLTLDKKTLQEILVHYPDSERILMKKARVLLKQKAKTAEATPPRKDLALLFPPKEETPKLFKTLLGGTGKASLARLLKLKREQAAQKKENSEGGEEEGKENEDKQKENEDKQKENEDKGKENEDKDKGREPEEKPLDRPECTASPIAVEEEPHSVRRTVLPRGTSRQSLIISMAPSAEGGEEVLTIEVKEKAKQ

[2] = molecular target: the molecule itself; experiment: as above

B1: CNGA3 subunit of the human cone photoreceptor CNG channel (natural protein, UniProt Q16281 1-694, looked up)
chain: MAKINTQYSHPSRTHLKVKTSDRDLNRAENGLSRAHSSSEETSSVLQPGIAMETRGLADSGQGSFTGQGIARLSRLIFLLRRWAARHVHHQDQGPDSFPDRFRGAELKEVSSQESNAQANVGSQEPADRGRSAWPLAKCNTNTSNNTEEEKKTKKKDAIVVDPSSNLYYRWLTAIALPVFYNWYLLICRACFDELQSEYLMLWLVLDYSADVLYVLDVLVRARTGFLEQGLMVSDTNRLWQHYKTTTQFKLDVLSLVPTDLAYLKVGTNYPEVRFNRLLKFSRLFEFFDRTETRTNYPNMFRIGNLVLYILIIIHWNACIYFAISKFIGFGTDSWVYPNISIPEHGRLSRKYIYSLYWSTLTLTTIGETPPPVKDEEYLFVVVDFLVGVLIFATIVGNVGSMISNMNASRAEFQAKIDSIKQYMQFRKVTKDLETRVIRWFDYLWANKKTVDEKEVLKSLPDKLKAEIAINVHLDTLKKVRIFQDCEAGLLVELVLKLRPTVFSPGDYICKKGDIGKEMYIINEGKLAVVADDGVTQFVVLSDGSYFGEISILNIKGSKSGNRRTANIRSIGYSDLFCLSKDDLMEALTEYPEAKKALEEKGRQILMKDNLIDEELARAGADPKDLEEKVEQLGSSLDTLQTRFARLLAEYNATQMKMKQRLSQLESQVKGGGDKPLADGEVPGDATKTEDKQQ
notes: CNGA3, human cone photoreceptor cyclic nucleotide-gated channel subunit; Three copies stand in the CNGA3/CNGB3 channel whose cryo-EM structure (apo state) is reported
stoichiometry N [1]: 3 CNGA3 per CNGB3
binding result [2]: binds
